# Bridges are numbered along the chain shown (N, C = ends). Where no end group is shown, it is not given here. [ ]: non-standard residue; d: D form. Aib = CC(C)(N)C(=O)O
# T1: GIP receptor (UniProt P48546 22-466, limits assumed)
# T1 sequence (looked up): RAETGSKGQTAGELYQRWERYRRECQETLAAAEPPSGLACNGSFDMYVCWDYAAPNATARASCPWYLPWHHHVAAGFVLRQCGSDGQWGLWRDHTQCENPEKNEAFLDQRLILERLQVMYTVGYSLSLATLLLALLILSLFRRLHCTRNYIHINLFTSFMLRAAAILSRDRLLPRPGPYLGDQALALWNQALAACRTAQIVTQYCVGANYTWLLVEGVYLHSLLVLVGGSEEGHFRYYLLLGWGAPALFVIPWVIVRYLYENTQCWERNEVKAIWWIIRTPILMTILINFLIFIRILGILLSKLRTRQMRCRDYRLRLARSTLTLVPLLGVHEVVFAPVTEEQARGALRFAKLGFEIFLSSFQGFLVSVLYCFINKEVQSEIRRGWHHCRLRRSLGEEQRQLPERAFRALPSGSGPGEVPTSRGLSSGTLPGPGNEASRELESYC
# B1: mt-404 (SEQ ID NO: 13) (peptide)
# peptide: HSQGTFISDYSKALDEIHQKEFIAWLMNT-NH2
# modifications: lactam 16-20; not fully specified (residue 2); also: AIB at position 2 and position 20 (given S and K), any further modification only
# B2: mt-403 (SEQ ID NO: 12) (peptide)
# peptide: HSQGTFISDYSKYLDEIHQKEFIAWLMNT-NH2
# modifications: lactam 16-20; not fully specified (residue 2); also: AIB at position 2 and position 20 (given S and K), any further modification only
# B3: mt-398 (SEQ ID NO: 18) (peptide)
# peptide: YSQGTFTSDYSKYLDEQAAKEFIAWLMNGGPSSGAPPPS-NH2
# modifications: lactam 16-20; N-terminus assumed
# SMILES: CC[C@H](C)[C@H](NC(=O)[C@H](Cc1ccccc1)NC(=O)[C@H](CCC(=O)O)NC(=O)[C@@H]1CCCCNC(=O)CC[C@H](NC(=O)[C@H](CC(=O)O)NC(=O)[C@H](CC(C)C)NC(=O)[C@H](Cc2ccc(O)cc2)NC(=O)[C@H](CCCCN)NC(=O)[C@H](CO)NC(=O)[C@H](Cc2ccc(O)cc2)NC(=O)[C@H](CC(=O)O)NC(=O)[C@H](CO)NC(=O)[C@@H](NC(=O)[C@H](Cc2ccccc2)NC(=O)[C@@H](NC(=O)CNC(=O)[C@H](CCC(N)=O)NC(=O)[C@H](CO)NC(=O)[C@@H](N)Cc2ccc(O)cc2)[C@@H](C)O)[C@@H](C)O)C(=O)N[C@@H](CCC(N)=O)C(=O)N[C@@H](C)C(=O)N[C@@H](C)C(=O)N1)C(=O)N[C@@H](C)C(=O)N[C@@H](Cc1c[nH]c2ccccc12)C(=O)N[C@@H](CC(C)C)C(=O)N[C@@H](CCSC)C(=O)N[C@@H](CC(N)=O)C(=O)NCC(=O)NCC(=O)N1CCC[C@H]1C(=O)N[C@@H](CO)C(=O)N[C@@H](CO)C(=O)NCC(=O)N[C@@H](C)C(=O)N1CCC[C@H]1C(=O)N1CCC[C@H]1C(=O)N1CCC[C@H]1C(=O)N[C@@H](CO)C(N)=O
# B4: mt-397 (SEQ ID NO: 17) (peptide)
# peptide: YSQGTFTSDYSKYLDEIHQKEFVNWLLAQ-NH2
# modifications: staple (positions not given here); not fully specified; also: olefinic cross-link, positions not given here
# B5: mt-396 (SEQ ID NO: 16) (peptide)
# peptide: YSQGTFTSDYSKYLDEIHQKDFVNWLLAGGPSSGAPPPS-NH2
# modifications: lactam 16-20; N-terminus assumed
# SMILES: CC[C@H](C)[C@@H]1NC(=O)[C@@H](NC(=O)[C@H](CC(=O)O)NC(=O)[C@H](CC(C)C)NC(=O)[C@H](Cc2ccc(O)cc2)NC(=O)[C@H](CCCCN)NC(=O)[C@H](CO)NC(=O)[C@H](Cc2ccc(O)cc2)NC(=O)[C@H](CC(=O)O)NC(=O)[C@H](CO)NC(=O)[C@@H](NC(=O)[C@H](Cc2ccccc2)NC(=O)[C@@H](NC(=O)CNC(=O)[C@H](CCC(N)=O)NC(=O)[C@H](CO)NC(=O)[C@@H](N)Cc2ccc(O)cc2)[C@@H](C)O)[C@@H](C)O)CCC(=O)NCCCC[C@@H](C(=O)N[C@@H](CC(=O)O)C(=O)N[C@@H](Cc2ccccc2)C(=O)N[C@H](C(=O)N[C@@H](CC(N)=O)C(=O)N[C@@H](Cc2c[nH]c3ccccc23)C(=O)N[C@@H](CC(C)C)C(=O)N[C@@H](CC(C)C)C(=O)N[C@@H](C)C(=O)NCC(=O)NCC(=O)N2CCC[C@H]2C(=O)N[C@@H](CO)C(=O)N[C@@H](CO)C(=O)NCC(=O)N[C@@H](C)C(=O)N2CCC[C@H]2C(=O)N2CCC[C@H]2C(=O)N2CCC[C@H]2C(=O)N[C@@H](CO)C(N)=O)C(C)C)NC(=O)[C@H](CCC(N)=O)NC(=O)[C@H](Cc2c[nH]cn2)NC1=O
# B6: mt-395 (SEQ ID NO: 15) (peptide)
# peptide: HSQGTFTSDYSKYLDEIHQKDFVNWLLAGGPSSGAPPPS-NH2
# modifications: lactam 16-20; N-terminus assumed
# SMILES: CC[C@H](C)[C@@H]1NC(=O)[C@@H](NC(=O)[C@H](CC(=O)O)NC(=O)[C@H](CC(C)C)NC(=O)[C@H](Cc2ccc(O)cc2)NC(=O)[C@H](CCCCN)NC(=O)[C@H](CO)NC(=O)[C@H](Cc2ccc(O)cc2)NC(=O)[C@H](CC(=O)O)NC(=O)[C@H](CO)NC(=O)[C@@H](NC(=O)[C@H](Cc2ccccc2)NC(=O)[C@@H](NC(=O)CNC(=O)[C@H](CCC(N)=O)NC(=O)[C@H](CO)NC(=O)[C@@H](N)Cc2c[nH]cn2)[C@@H](C)O)[C@@H](C)O)CCC(=O)NCCCC[C@@H](C(=O)N[C@@H](CC(=O)O)C(=O)N[C@@H](Cc2ccccc2)C(=O)N[C@H](C(=O)N[C@@H](CC(N)=O)C(=O)N[C@@H](Cc2c[nH]c3ccccc23)C(=O)N[C@@H](CC(C)C)C(=O)N[C@@H](CC(C)C)C(=O)N[C@@H](C)C(=O)NCC(=O)NCC(=O)N2CCC[C@H]2C(=O)N[C@@H](CO)C(=O)N[C@@H](CO)C(=O)NCC(=O)N[C@@H](C)C(=O)N2CCC[C@H]2C(=O)N2CCC[C@H]2C(=O)N2CCC[C@H]2C(=O)N[C@@H](CO)C(N)=O)C(C)C)NC(=O)[C@H](CCC(N)=O)NC(=O)[C@H](Cc2c[nH]cn2)NC1=O
# Molecular target: T2, GLP-1 receptor (UniProt P43220 24-463, limits assumed)
# Experiment: cell-based or functional assay
Binder,EC50 (cAMP reporter),relative activity (to native hormone)
B1,6 pM,258%
B2,2.7 pM,582%
Y[Aib]QGTFTSDYSIYLDKKAA[Aib]EFVNWLLAGGPSSGAPPPSK-NH2 [mt-402 (SEQ ID NO: 11)],7 pM,–
Y[Aib]QGTFTSDYSKYLDEIHQKDFVNWLLAQ-NH2 (not fully specified (residue 20)) [mt-405 (SEQ ID NO: 14)],2.2 pM,717%

# Molecular target: T1, GIP receptor
# Experiment: cell-based or functional assay
Binder,EC50 (cAMP reporter),relative activity (to native hormone)
B1,32.7 pM,50.6%
Y[Aib]EGTFTSDYSIYLDKQAA[Aib]EFVNWLLAGGPSSGAPPPSK-NH2 [mt-263 (SEQ ID NO: 10)],5.4 pM,–
B2,6.1 pM,273%
Y[Aib]QGTFTSDYSIYLDKKAA[Aib]EFVNWLLAGGPSSGAPPPSK-NH2 [mt-402 (SEQ ID NO: 11)],18.5 pM,–
Y[Aib]QGTFTSDYSKYLDEIHQKDFVNWLLAQ-NH2 (not fully specified (residue 20)) [mt-405 (SEQ ID NO: 14)],3.9 pM,425%

# Molecular target: T3, glucagon receptor (UniProt P47871 26-477, limits assumed)
# T3 sequence (P47871 26-477 limits assumed): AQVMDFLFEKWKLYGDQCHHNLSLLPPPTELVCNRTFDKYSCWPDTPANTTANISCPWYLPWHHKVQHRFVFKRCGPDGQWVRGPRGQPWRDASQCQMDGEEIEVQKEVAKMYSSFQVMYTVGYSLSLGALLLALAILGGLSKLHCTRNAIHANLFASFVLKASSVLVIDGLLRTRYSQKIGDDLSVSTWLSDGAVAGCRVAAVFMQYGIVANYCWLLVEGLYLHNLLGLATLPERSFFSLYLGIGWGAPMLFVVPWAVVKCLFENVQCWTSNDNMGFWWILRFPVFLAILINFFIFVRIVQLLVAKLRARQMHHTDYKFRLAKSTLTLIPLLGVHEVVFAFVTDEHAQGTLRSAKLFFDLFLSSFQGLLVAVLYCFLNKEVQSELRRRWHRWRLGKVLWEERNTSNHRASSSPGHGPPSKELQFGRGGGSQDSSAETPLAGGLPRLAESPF
# Experiment: cell-based or functional assay
Binder,EC50 (cAMP reporter),relative activity (to native hormone)
B1,108 pM,70.8%
Y[Aib]EGTFTSDYSIYLDKQAA[Aib]EFVNWLLAGGPSSGAPPPSK-NH2 [mt-263 (SEQ ID NO: 10)],4040 pM,–
B2,7.7 pM,987%
Y[Aib]QGTFTSDYSKYLDEIHQKDFVNWLLAQ-NH2 (not fully specified (residue 20)) [mt-405 (SEQ ID NO: 14)],9.6 pM,797%

# Molecular target: T2, GLP-1 receptor
# Experiment: cell-based or functional assay
# Remark: another data set of the same source
Binder,EC50 (cAMP reporter),relative activity (to native hormone)
B3,7.8 pM,315%
B4,8.5 pM,288%
B5,9.3 pM,262%
B6,7.6 pM,322%

# Molecular target: T1, GIP receptor
# Experiment: cell-based or functional assay
# Remark: another data set of the same source
Binder,EC50 (cAMP reporter),relative activity (to native hormone)
Y[Aib]EGTFTSDYSIYLDKQAA[Aib]EFVNWLLAGGPSSGAPPPSK-NH2 [mt-263 (SEQ ID NO: 10)],3.3 pM,–
B3,3.1 pM,434%
B4,2.9 pM,470%
B5,3.4 pM,403%
B6,2.5 pM,537%

# Molecular target: T3, glucagon receptor
# Experiment: cell-based or functional assay
# Remark: another data set of the same source
Binder,EC50 (cAMP reporter),relative activity (to native hormone)
Y[Aib]EGTFTSDYSIYLDKQAA[Aib]EFVNWLLAGGPSSGAPPPSK-NH2 [mt-263 (SEQ ID NO: 10)],3140 pM,–
B3,3740 pM,0.8%
B4,5350 pM,0.56%
B5,2900 pM,1.03%
B6,3410 pM,0.87%
